Columns and labels:
SP2/0-HER3 cells = target: T1, SP2/0-HER3 cells (Homo sapiens, UniProt P21860); assay: FACS binding of murine 3F8 to SP2/0 cells overexpressing HER3; settings: PE-anti-mouse secondary antibody
T1 construct: expressed in transfected cells; host or cells: SP2/0 (mouse myeloma) stably expressing human HER3
Method: (§1) Cell culture: SP2/0, SP2/0-HER3, SP2/0-HER2, SP2/O-EGFR, NCI-N87, MDA-MB-468, MDA-MB-453, 7901, HT29, MCF-7, and SK-BR-3 used in the study were purchased from ATCC and cultured using the appropriate media recommended by ATCC. SP2/0-EGFR, SP2/0-HER2, and SP2/0HER3 cells stably expressing human EGFR, HER2 and HER3 were generated in house.
(§2) FACS assay: the cultured cells were digested with 0.25% trypsin-EDTA and then centrifuged at 1500 rpm for 5 min. The cell pellets were regenerated into 5×10^6 cells/mL using a PBS FACS solution containing 5% FBS and 0.2% ProClin300. 50 μL of the cell suspension was incubated with 100 μL of the primary antibody at a concentration of 1 μg/mL on ice for 1 h. The cells were washed twice with the FACS solution. The pellets were regenerated using 100 μL of a FACS solution containing goat anti-mouse IgG-PE (1:1000 dilution) and incubated on ice in the dark for 1 h. The cells were then washed twice and resuspended in 200 μL of the FACS solution.
(§3) Murine 3F8 was co-incubated with SP2/0 wild-type cells or cells overexpressing HER3, HER2 or EGFR. The binding strength was measured in a FACS instrument with a PE-anti-mouse secondary antibody.

cynomolgus monkey HER3 = assay: ELISA binding to cynomolgus monkey HER3; settings: Table 2
Method: (§4) ELISA assay: human HER2-ex-huFc, human HER3-huFc, and human EGFR-his were diluted to 2 μg/mL and 50 μL/well in a 96-well plate and incubated at 4° C. overnight. The plate was washed with 0.5×PBST, then incubated with 100 μL of a blocking buffer (PBS+3% BSA) at 37° C. for 2 h, and washed with 0.5×PBST. The 3F8 antibody was diluted with the blocking buffer in a 1:3 serial gradient, added at 50 μL/well, incubated at 37° C. for 40-50 min, and then washed with 0.5×PBST. Goat anti-mouse IgG-HRP (Southern Biotech, 1030-05) was diluted at 1:20000 with the blocking buffer, added at 50 μL/well, incubated in the dark for 30 min, and then washed with 0.5×PBST. Prior to assay, 50 μL of luminol buffer A+B was added to each well in a 1:1 mix.
(§5) The species selectivity of murine 3F8 to human, monkey, rat and mouse HER3 was determined by ELISA.
(§6) EC50 of murine 3F8 binding to human, monkey, rat and mouse HER3 was analyzed using GraphPad Prism 6.0.

human HER2 = target: T2, human HER2 (Homo sapiens, UniProt P04626); assay: ELISA binding to human HER2
T2 construct: human HER2-ex-huFc; human Fc (huFc)
Method: as §4
(§7) The binding affinities of murine 3F8 to human HER3, HER2 and EGFR were determined by ELISA.
(§8) EC50 of murine 3F8 binding to human HER3, HER2, and EGFR was analyzed using GraphPad Prism 6.0.

rat HER3 = rat HER3 (Rattus norvegicus, UniProt Q62799); assay: ELISA binding to rat HER3
Sequence of rat HER3 (Q62799 20-1339): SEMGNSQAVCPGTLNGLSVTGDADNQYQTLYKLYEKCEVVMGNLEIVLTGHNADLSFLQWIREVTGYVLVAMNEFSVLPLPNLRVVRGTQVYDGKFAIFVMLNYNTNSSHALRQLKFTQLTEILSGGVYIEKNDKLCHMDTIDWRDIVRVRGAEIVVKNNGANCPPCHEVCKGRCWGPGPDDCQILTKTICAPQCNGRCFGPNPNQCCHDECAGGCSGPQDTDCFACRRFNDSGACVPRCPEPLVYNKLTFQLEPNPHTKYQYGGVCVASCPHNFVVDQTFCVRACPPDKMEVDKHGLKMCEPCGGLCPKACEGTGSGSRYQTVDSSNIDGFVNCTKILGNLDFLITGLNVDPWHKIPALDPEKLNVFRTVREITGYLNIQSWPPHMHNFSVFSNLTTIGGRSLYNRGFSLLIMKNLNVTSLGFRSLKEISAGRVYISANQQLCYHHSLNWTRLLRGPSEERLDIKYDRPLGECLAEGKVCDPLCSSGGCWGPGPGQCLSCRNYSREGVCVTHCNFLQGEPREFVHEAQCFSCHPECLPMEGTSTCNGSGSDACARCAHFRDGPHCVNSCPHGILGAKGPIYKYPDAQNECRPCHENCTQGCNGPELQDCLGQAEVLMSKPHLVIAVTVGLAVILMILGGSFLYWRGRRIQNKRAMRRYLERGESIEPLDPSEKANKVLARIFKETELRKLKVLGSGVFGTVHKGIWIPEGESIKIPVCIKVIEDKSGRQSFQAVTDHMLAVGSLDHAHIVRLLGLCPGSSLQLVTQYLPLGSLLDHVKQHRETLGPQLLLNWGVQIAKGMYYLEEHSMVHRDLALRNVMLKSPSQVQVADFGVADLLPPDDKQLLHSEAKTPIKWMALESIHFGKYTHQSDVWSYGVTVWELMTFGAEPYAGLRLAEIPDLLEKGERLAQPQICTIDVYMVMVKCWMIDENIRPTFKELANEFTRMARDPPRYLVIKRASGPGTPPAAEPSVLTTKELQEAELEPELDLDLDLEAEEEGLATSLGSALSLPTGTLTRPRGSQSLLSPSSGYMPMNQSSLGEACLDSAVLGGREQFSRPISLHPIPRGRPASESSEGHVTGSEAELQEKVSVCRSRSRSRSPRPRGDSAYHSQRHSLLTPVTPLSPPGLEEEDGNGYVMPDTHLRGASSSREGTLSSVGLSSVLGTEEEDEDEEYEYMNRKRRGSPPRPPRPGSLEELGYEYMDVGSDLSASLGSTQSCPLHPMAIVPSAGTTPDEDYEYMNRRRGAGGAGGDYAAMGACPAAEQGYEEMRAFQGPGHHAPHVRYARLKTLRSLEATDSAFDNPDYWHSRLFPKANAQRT
Method: as §4, §5, §6

[1] = system: cells at different HER3 surface levels; assay: Internalization of murine 3F8 by cells at different HER3 surface levels; type: cell-based
Method: Murine 3F8 was rapidly taken up by cells at different HER3 surface levels. The cells at different HER3 surface levels were incubated with murine 3F8 on ice (control) or incubated at 37° C. for 1 or 4 h. The internalization fraction was determined by subtracting the 37° C. incubated cell surface signal from the ice incubated control.

HER3 [2] = target: T3, HER3 (Homo sapiens, UniProt P21860); assay: ELISA binding to human HER3
T3 construct: human Fc (huFc)
Method: as §4, §7, §8, §5, §6

mouse HER3 = mouse HER3 (Mus musculus, UniProt Q61526); assay: ELISA binding to mouse HER3
Sequence of mouse HER3 (Q61526 20-1339): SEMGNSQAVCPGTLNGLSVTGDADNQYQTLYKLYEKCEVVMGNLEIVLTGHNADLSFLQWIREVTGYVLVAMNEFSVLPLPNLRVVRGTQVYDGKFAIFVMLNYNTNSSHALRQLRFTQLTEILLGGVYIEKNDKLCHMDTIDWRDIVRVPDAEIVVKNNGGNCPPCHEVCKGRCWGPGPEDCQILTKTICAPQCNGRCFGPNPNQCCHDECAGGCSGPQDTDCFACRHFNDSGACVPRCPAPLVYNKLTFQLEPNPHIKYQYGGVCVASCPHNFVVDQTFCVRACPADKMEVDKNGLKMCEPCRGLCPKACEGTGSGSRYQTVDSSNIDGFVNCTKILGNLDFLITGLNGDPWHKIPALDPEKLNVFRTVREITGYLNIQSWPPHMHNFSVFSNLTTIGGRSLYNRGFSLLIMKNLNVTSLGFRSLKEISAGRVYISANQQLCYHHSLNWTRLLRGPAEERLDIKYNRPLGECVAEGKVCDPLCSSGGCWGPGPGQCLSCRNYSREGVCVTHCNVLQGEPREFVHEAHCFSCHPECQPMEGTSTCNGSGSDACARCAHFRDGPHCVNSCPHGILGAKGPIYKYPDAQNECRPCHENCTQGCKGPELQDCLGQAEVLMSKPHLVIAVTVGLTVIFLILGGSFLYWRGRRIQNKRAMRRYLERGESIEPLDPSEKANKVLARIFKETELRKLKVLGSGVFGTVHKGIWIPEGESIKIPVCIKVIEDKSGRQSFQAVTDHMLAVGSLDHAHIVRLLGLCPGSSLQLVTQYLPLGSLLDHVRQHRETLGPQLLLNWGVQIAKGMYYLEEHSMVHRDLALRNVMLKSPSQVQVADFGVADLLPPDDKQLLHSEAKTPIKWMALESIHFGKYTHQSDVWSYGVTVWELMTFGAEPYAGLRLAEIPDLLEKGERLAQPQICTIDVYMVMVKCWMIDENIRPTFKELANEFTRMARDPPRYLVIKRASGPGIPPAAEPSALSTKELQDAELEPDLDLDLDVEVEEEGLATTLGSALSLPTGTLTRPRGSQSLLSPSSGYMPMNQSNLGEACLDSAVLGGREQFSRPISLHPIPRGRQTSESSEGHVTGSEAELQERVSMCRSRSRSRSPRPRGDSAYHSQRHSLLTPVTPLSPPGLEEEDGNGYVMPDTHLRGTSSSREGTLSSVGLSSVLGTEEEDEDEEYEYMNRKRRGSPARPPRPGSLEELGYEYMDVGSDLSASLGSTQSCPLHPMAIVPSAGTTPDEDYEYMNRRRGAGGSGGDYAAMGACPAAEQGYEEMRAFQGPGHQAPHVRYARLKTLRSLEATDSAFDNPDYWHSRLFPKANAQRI
Method: as §4, §5, §6

[3] = system: BT474 subcutaneous xenograft model; assay: Tumor growth in BT474 subcutaneous xenograft model; type: in vivo, mouse; settings: 25 mg/kg intravenously once every two weeks for three weeks; one-way analysis of variance p<0.05
Method: In vivo efficacy study: the animals were maintained and used according to the IACUC guidelines. BALC/b nude mice and NPG mice, purchased from Charles River and SPF Biotech, respectively, were housed at 25° C. in a 12-h dark/light cycle with free access to food and drink. A patient-derived xenograft (PDX) model was generated by subcutaneous implantation of cryopreserved tissue fragments. Animals were initiated with drug treat when the tumor size reached 100-200 mm^3 and were euthanized when the tumor size was 1000 mm^3. The health condition was monitored daily. Tumor size and body weight were monitored and recorded every 3 days.
The anti-HER3 antibody was effective in inhibiting tumor growth in the BT474 subcutaneous xenograft model. The anti-HER3 antibody 3F8, 3D4, or 3F8+3D4 combination was injected intravenously at 25 mg/kg once every two weeks for three weeks. Tumor size was monitored every 3-4 days. Both 3F8 and 3D4 are anti-HER3 antibodies. 3F8 is a murine antibody.

[4] = system: SP2/0 wild-type cells or cells overexpressing HER2 or EGFR; assay: FACS binding of murine 3F8 to SP2/0 wild-type, HER2 or EGFR cells; parameters: species or system human
Method: as §1, §2, §3

human EGFR = target: T4, human EGFR (Homo sapiens, UniProt P00533); assay: ELISA binding to human EGFR
T4 construct: His
Method: as §4, §7, §8

[5] = system: NRG1-induced HER3 phosphorylation; assay: NRG1-induced HER3 phosphorylation, western blot in NCI-N87, MDA-MB-468 and MDA-MB-453; type: cell-based
Method: Western blot assay: the protein separated by SDS-PAGE was transferred to a nitrocellulose membrane for Western blot. The primary antibodies used were as follows: anti-HER2 (cell signaling, Catl #: 2165S), anti-HER3 (cell signaling, Catl #: 12708), anti-p-HER3 (cell signaling, Catl #: 4791), and anti-β-actin (cell signal transduction, Catl #: 4967).
HER3 phosphorylation induced by NRG1: the cells were cultured in a 6-well plate and used for an experiment when the confluency reached 80%. On the day of the experiment, the cells were washed twice with PBS, incubated for 6 h in a serum-free medium, and then induced overnight with 10 μg/mL of the antibody. To induce HER3 phosphorylation, NRG1 was added to a working concentration of 100 ng/mL 30 min before the cells were collected for Western blot.
Murine 3F8 blocked NRG1-induced HER3 phosphorylation. NCI-N87, MDA-MB-468 and MDA-MB-453 were treated with NRG1, the HER3 ligand, to induce downstream phosphorylation of HER3.
The effect of murine 3F8 in inhibiting NRG1-induced p-HER3 was determined by western blot.

HER3 [6] = target: T3, HER3; assay: ELISA binding affinity after repeated freeze-thaw; settings: 0 freeze-thaw cycles
Method: as §4
(§9) Antibody stability test: the purified antibody at 5 mg/mL was stored at 4° C. as regular practice, incubated at 40° C. for 7 days and 14 days for heat stability evaluation, transferred to a glycine solution at pH 3.5 for regeneration, and stored for 2, 4 and 6 h for acid stability evaluation, or subjected to repeated freeze-thaw treatments for 4 or 6 cycles for freeze-thaw stability evaluation. Aggregation was measured by SEC-HPLC, and binding affinity was determined by ELISA.
Three clones of hu3F8 were freeze-thawed for 3 or 5 cycles, and then subjected to ELISA to measure the binding affinities. The chimeric antibody was subjected to parallel assay.

HER3 [7] = target: T3, HER3; assay: ELISA binding affinity after incubation at 40° C. (heat stress); settings: day 0
Method: as §4, with “Prior to assay, 50 μL of luminol buffer A+B was added to each well in a 1:1 mix.” left out
as §9, with “ELISA. […]” for “ELISA.”
EC50 assay of the three clones of hu3F8 incubated at 40° C. for different times. The three humanized 3F8 antibody clones were incubated in normal saline at 40° C. for 7 or 14 days, and the binding affinities after heat stress test were determined by ELISA. […]

His-HER3 = target: T5, His-HER3 (Homo sapiens, UniProt P21860); assay: Binding kinetics by Biacore (SPR); settings: antibody as ligand, analyte His-HER3, Biacore T200
T5 construct: His
Method: Affinity assay by surface plasmon resonance (SPR): antibody kinetics and affinity were determined using Biacore T200. Briefly, the recombinant human HER3 antibody was immobilized on a protein A chip (GE, Cat. 29-1275-5). The antigen concentration, from 50 nM to a final concentration of 0.78125 nM, was generated by 2-fold serial dilution, and affinity and kinetics were determined through the chip.
The binding affinity of humanized 3F8 (hu3F8) and chimeric 3F8. Binding kinetics of 3 humanized 3F8 clones and chimeric 3F8 were determined by Biacore. Three humanized 3F8 clones (clone 1, clone 2 and clone 3) had different heavy chains and one identical light chain. Clone 1, clone 2, and clone 3 corresponded to hu3F8-1, hu3F8-2, and hu3F8-3, respectively.
All data listed in Table 6 were processed using Biacore T200 evaluation software version 3.1.

B1: murine 3F8: murine anti-HER3 antibody 3F8 from hybridoma; VL SEQ ID NO: 15, VH SEQ ID NO: 16 (antibody, V domains shown)
VH: DVQLQESGPGLVKPSQSLSLTCSVTGYSITSAYYWNWIRQFPGDKLEWMGYISYDGRNNFNPSLKNRISITRDTSKNQFFLKLNSVTSGDTATYYCARDGDYDYFDYWGQGTTLTVSS
VL: DIQMTQTTSSLSASLGDRVTISCRASQDISNYLNWYQQKPDGTFKLLIYYTSILHSGVPSRFSGSGSGTDYSLTISNLEQEDIATYFCQQGDTLPPTFGAGTKLELK
binding to SP2/0-HER3 cells (SP2/0-HER3 cells): specifically bound
EC50 (ng/mL) Cynomolgus monkey HER3 (cynomolgus monkey HER3): 27.825 ng/mL
recognition of human HER2 (human HER2): did not recognize
recognition of rat HER3 (rat HER3): did not recognize
time within which most was taken up ([1]; 37° C.): ≤ 1 h
internalization into the cell ([1]; 37° C. for 1 or 4 h vs ice control): rapidly internalized
recognition of human HER3 (HER3 [2]; ELISA): only recognized HER3
EC50 (ng/mL) huHER3 (HER3 [2]; Table 1): 16.50 ng/mL
HillSlope huHER3 (HER3 [2]; Table 1): 1.04
EC50 (ng/mL) Human HER3 (HER3 [2]; Table 2): 24.525 ng/mL
HillSlope Human HER3 (HER3 [2]; Table 2): 1.015
recognition of mouse HER3 (mouse HER3): did not recognize
tumor growth [3]: significantly inhibited the tumor growth
binding to other cells [4]: did not bind
recognition of human EGFR (human EGFR): did not recognize
HER2 protein level [5]: no effect
total HER3 protein level [5]: no effect
phosphorylation level of HER3 protein ([5]; NRG1 100 ng/mL, antibody 10 μg/mL): reduced the phosphorylation level

B2: Chimeric: murine-human chimeric 3F8 antibody with human IgG1 and Igκ constant regions (antibody, V domains shown)
VH: DVQLQESGPGLVKPSQSLSLTCSVTGYSITSAYYWNWIRQFPGDKLEWMGYISYDGRNNFNPSLKNRISITRDTSKNQFFLKLNSVTSGDTATYYCARDGDYDYFDYWGQGTTLTVSS
VL: DIQMTQTTSSLSASLGDRVTISCRASQDISNYLNWYQQKPDGTFKLLIYYTSILHSGVPSRFSGSGSGTDYSLTISNLEQEDIATYFCQQGDTLPPTFGAGTKLELK
EC50 after freeze-thaw stress (HER3 [6]): 0.04706 mg/L
EC50 after incubation at 40° C. (HER3 [7]): 0.04737 mg/L
ka (His-HER3): 628000 M⁻¹ s⁻¹
kd (His-HER3): 0.000391 s⁻¹
